Here are results for 5 molecules from patent US20040137516A1 (PHAGETECH, published 2004).

First the molecules themselves.
T1: Gal4 activation domain-STAAU_R2 fusion (pGADSTAAU_R2) (yeast; Staphylococcus aureus, UniProt P0A022 1-377)
T1 construct: Expressed in yeast AH109 for two-hybrid analysis; not shown: limits and vector-encoded tags not st
T1 sequence: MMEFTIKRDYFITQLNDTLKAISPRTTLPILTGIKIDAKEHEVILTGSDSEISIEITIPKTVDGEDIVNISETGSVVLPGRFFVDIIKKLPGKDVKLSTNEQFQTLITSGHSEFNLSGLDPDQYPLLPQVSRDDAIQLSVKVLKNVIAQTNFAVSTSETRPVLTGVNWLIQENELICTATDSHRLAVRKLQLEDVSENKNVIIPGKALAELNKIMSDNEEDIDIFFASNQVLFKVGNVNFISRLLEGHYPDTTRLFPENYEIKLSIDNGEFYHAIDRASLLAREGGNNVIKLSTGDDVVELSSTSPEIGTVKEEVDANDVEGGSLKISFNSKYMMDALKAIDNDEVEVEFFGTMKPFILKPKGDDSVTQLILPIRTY

T2: S. aureus STAAU_R2 (DNA-directed DNA polymerase III beta subunit, DnaN), native protein in S. aureus extract (Staphylococcus aureus, UniProt P0A022 1-377)
T2 construct: also called PT48; PT 48
T2 sequence: T1 sequence

T3: Glutathione-S-transferase (GST)-tagged STAAU_R2 (Staphylococcus aureus, UniProt P0A022 1-377)
T3 construct: Purified recombinant polypeptide captured by an anti-GST antibody on a CM5 chip; not shown: glutathione-S-transferase (GST) tag
T3 sequence: T1 sequence

B1: Gal4 DNA binding domain-Lamin C control fusion (pGBKT7LaminC) (other)
chain: MKLLSSIEQACDICRLKKLKCSKEKPKCAKCLKNNWECRYSPKTKRSPLTRAHLTEVESRLERLEQLFLLIFPREDLDMILKMDSLQDIKALLTGLFVQDNVNKDAVTDRLASVETDMPLTLRQHRISATSSSEESSNKGQRQLTVSSEEVVSREVSGIKAAYEAELGDARKTLDSVAKERARLQLELSKVREEFKELKARNTKKEGDLIAAQARLKDLEALLNSKEAALSTALSEKRTLEGELHDLRGQVAKLEAALGEAKKQLQDEMLRRVDAENRLQTMKEELDFQKNIYSEELRETKRRHETRLVEID
notes: also called pGBKLaminC
B2: Gal4 activation domain-Twort ORF 168 fusion (pGADT7 construct) (other)
chain: MLFFKEKFYNELSYYRGGHKDLESMFELALEYIEKLEEEDEQQVTDYENAMEEELRDAVDVIESQLEIIKDIVR
notes: Second orientation of the two-hybrid test; also called Twort ORF 168 polypeptide; not shown: limits and vector-encoded tags not st
B3: GST/44AHJD ORF 25 fusion protein (other)
chain: MERKYKTVLLYCDEIKGHFPHQISMFEDLYDAKVVYSYYEYNLFTKKYAYIIEYIKEI
modifications: also: fusion protein with GST moiety, not in chain
notes: also called GST/ORF 25; GST/ORF25; not shown: glutathione-S-transferase (GST) moiety encoded by expression vector pGEX 4T-1 (Pharmacia)
B4: purified bacteriophage 44AHJD ORF 25 protein (other)
chain: B3 chain
notes: Purified recombinant polypeptide injected as analyte in SPR; also called 44ADJH ORF 25
B5: GST/G1 ORF 240 fusion protein (other)
chain: MVIPSIKAQNKFKNELEYYKQGHISESKMLELAFDYIQELEQNNEYVTNLLEEERYGE
modifications: also: fusion protein with GST moiety, not in chain
notes: also called GST ORF240; not shown: glutathione-S-transferase (GST) moiety encoded by expression vector pGEX 4T-1

Experiment [1] has as its target T1, Gal4 activation domain-STAAU_R2 fusion …. Nature of the experiment: yeast two-hybrid, growth on THAL minus medium.
For experiment [2], the target named is B1. The experiment is described as follows: yeast two-hybrid, growth on THAL minus medium.
The target of experiment [3] is T2, S. aureus STAAU_R2 (DNA-directed DNA …). Nature of the experiment: affinity chromatography of S. aureus extract on GST/ORF25-Affigel 10; 1% SDS eluate, SDS-PAGE silver stain, MALDI-ToF identification.
Experiment [4] concerns the target T3, Glutathione-S-transferase (GST)-tagged …. Nature of the experiment: SPR (Biacore 2000); GST-tagged STAAU_R2 captured by anti-GST antibody on CM5 chip, ORF 25 as analyte.
Experiment [5] deals with T2, S. aureus STAAU_R2 (DNA-directed DNA …). Nature of the experiment: affinity chromatography of S. aureus extract on GST ORF240-Affigel 10; SDS-PAGE silver stain.

Where no end group is shown, it is not given here.

Consider B1, for which, in experiment [1], the binding result is “no binding”. On to B2, for which the binding result in experiment [2] is “no binding”. B3: the binding result in experiment [3] is “binds”. B4: in experiment [4], the binding result is recorded as “binds”. For B5, the binding result in experiment [5] was “binds”.
